From patent US20210130452A1 (Merck KGaA, published 2021)

Key:
[1] = target: T1, rat IL-17F (rat, UniProt Q5BJ95 29-161); assay: ELISA, coated IL-17F;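 note: binding ELISA on coated antigen from various species, with bound Nanobodies revealed by an HRP-linked anti-myc antibody and esTMB substrate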
T1 sequence (looked up): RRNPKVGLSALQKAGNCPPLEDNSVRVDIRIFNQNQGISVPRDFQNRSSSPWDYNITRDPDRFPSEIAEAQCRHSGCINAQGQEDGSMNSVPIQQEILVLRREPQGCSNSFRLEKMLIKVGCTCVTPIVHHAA
Description: (§1) Binding of a selected panel of anti-IL-17 Nanobodies to IL-17 of other species was assessed using a binding ELISA. […] HRP (horseradish peroxidase) conjugated anti-myc (Serotec, MCA 2200P) was used for detection using esTMB as substrate.

[2] = target: T2, marmoset IL-17F (marmoset, UniProt A6N6I9 31-163); assay: ELISA, coated IL-17F;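 note: binding ELISA on coated antigen from various species, with bound Nanobodies revealed by an HRP-linked anti-myc antibody and esTMB substrate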
T2 sequence (looked up): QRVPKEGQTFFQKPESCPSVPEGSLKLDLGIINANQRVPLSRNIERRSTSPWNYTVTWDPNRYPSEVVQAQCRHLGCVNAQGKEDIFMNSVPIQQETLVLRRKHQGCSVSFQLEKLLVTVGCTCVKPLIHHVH
Description: as §1

[3] = target: T3, human IL-17F (human, UniProt Q96PD4 31-163); assay: ELISA, coated IL-17F;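 note: binding ELISA on coated antigen from various species, with bound Nanobodies revealed by an HRP-linked anti-myc antibody and esTMB substrate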
T3 construct: GenBank AF384857, expressed in Hek293 as 6-His C-terminal tagged protein; also called hIL-17F; IL-17F-6HIS
T3 sequence: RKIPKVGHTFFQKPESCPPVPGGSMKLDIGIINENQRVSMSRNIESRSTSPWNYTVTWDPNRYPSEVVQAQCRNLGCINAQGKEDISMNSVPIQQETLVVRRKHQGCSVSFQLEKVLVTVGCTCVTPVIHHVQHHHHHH
Description: as §1

[4] = target: T4, mouse IL-17F (mouse, UniProt Q7TNI7 29-161); assay: ELISA, coated IL-17F;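 note: binding ELISA on coated antigen from various species, with bound Nanobodies revealed by an HRP-linked anti-myc antibody and esTMB substrate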
T4 sequence (looked up): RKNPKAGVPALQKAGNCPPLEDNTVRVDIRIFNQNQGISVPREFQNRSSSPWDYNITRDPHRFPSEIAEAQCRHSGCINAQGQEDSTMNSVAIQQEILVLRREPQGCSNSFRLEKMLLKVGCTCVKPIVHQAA
Description: as §1

[5] = target: T5, marmoset IL-17A (marmoset, IL-17A is a disulfide-linked homodimer. One chain is given.); assay: ELISA, coated IL-17A
T5 chain: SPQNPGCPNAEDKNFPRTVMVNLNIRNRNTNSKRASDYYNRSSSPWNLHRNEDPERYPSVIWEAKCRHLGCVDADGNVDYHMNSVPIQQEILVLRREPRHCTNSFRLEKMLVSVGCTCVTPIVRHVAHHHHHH
Description: as §1

[6] = target: T6, mouse IL-17A (mouse, UniProt Q62386 26-158); assay: ELISA, coated IL-17A
T6 sequence (looked up): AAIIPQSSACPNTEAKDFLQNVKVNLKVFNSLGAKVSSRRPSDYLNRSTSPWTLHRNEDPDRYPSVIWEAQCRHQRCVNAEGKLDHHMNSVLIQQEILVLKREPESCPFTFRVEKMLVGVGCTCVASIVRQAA
Description: as §1

[7] = target: T7, human IL-17A (human, UniProt Q16552 24-155); assay: ELISA, coated IL-17A
T7 construct: secreted form (GenBank U32659) expressed in Hek293 with C-terminal 6-His; also called hIL-17A; IL-17A-6HIS
T7 sequence (Q16552 other isoform, or with tags, fused parts or gaps): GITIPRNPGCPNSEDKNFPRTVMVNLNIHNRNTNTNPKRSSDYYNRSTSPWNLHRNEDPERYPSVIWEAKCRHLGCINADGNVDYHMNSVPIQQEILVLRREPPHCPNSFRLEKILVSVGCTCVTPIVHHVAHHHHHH
Description: as §1

[8] = target: T8, rat IL-17A (rat, UniProt Q61453 18-150, limits assumed); assay: ELISA, coated IL-17A
T8 sequence (looked up): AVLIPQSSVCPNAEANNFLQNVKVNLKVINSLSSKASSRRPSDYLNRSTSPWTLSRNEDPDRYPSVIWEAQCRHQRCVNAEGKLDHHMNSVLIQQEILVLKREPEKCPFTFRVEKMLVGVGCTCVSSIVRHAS
Description: as §1

[9] = target: guinea pig IL-17A (guinea pig); assay: ELISA, coated IL-17A
Description: as §1

[10] = target: T7, human IL-17A; assay: SPR, IL-17A-Nanobody complex over captured IL-17RA
Excerpt: The receptor (IL-17RA or IL-17RC) was captured via its human Fc-tail by an anti-human IgG-Fc antibody coated on the chip.

[11] = target: T9, human IL-17A (human, UniProt Q16552 24-155, biotinylated with Sulfo-NHS-LC-Biotin in the AlphaScreen assays only); assay: AlphaScreen competition, hIL-17A - IL-17RC-Fc;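 note: Read-out after 1 h at room temperature with the receptor Fc-fusion, Acceptor beads and streptavidin-coated Donor beads present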
T9 construct: also called hIL-17A; recombinant human IL-17A
T9 sequence (Q16552 other isoform, or with tags, fused parts or gaps): as the sequence (Q16552 other isoform, or with tags, fused parts or gaps) above
Description: (§2) To this mixture, the IL-17RA or IL-17RC Fc-fusions, Acceptor beads and the streptavidin Donor beads were added and further incubated for 1 hour at RT.

[12] = target: T9, human IL-17A; assay: cell-based or functional assay
[13] = target: T10, human IL-17A/F heterodimer (human, UniProt Q16552 24-155; Q96PD4 31-163, limits assumed, biotinylated with Sulfo-NHS-LC-Biotin in the AlphaScreen assays only); assay: SPR Biacore, hIL-17A/F on chip; purified protein
T10 construct: also called hIL-17A/F

[14] = target: T11, human IL-17F (human, UniProt Q96PD4 31-163, biotinylated with Sulfo-NHS-LC-Biotin in the AlphaScreen assays only); assay: SPR Biacore, hIL-17F on chip; purified protein
T11 construct: also called hIL-17F; recombinant human IL-17F
T11 sequence: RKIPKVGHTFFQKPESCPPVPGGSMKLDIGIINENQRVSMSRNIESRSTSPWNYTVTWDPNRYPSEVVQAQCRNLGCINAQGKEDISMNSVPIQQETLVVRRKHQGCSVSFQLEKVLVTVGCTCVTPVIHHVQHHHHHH
Description: (§3) Off-rates of the periplasmic extracts containing anti-IL-17 Nanobodies were measured by Surface Plasmon Resonance (SPR) using a Biacore T100 instrument. […] Periplasmic extracts containing IL-17 neutralizing Nanobodies were injected for 2 minutes at a flow rate of 45 μl/min to allow binding to chip-bound antigen. Next, binding buffer without periplasmic extracts was sent over the chip at the same flow rate to allow spontaneous dissociation of bound Nanobody. From the sensorgrams obtained for the different periplasmic extracts koff-values (k₄) were calculated.

[15] = target: T10, human IL-17A/F heterodimer; assay: AlphaScreen competition, hIL-17A/F - IL-17RA-Fc
Target sequence in this assay (Q16552 24-155 limits assumed, chain 1 of 2, one chain of several): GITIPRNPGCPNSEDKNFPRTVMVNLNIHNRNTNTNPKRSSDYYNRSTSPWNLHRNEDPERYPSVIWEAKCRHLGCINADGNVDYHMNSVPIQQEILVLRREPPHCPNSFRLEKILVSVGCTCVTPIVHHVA
Description: as §2

[16] = target: T10, human IL-17A/F heterodimer; assay: cell-based or functional assay
Target sequence in this assay (Q16552 24-155 limits assumed, chain 1 of 2, one chain of several): as above

[17] = target: T11, human IL-17F; assay: AlphaScreen competition, hIL-17F - IL-17RC-Fc
Description: as §2

[18] = target: T9, human IL-17A; assay: AlphaScreen competition, hIL-17A - IL-17RA-Fc;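 note: receptor Fc-fusion plus Acceptor and streptavidin Donor beads incubated with the mixture for 1 h at room temperature before reading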
Description: as §2

[19] = target: T9, human IL-17A; assay: SPR Biacore, hIL-17A on chip; periplasmic extract (*)
Description: as §3

[20] = target: T11, human IL-17F; assay: AlphaScreen competition, hIL-17F - IL-17RA-Fc
Description: as §2

[21] = target: T11, human IL-17F; assay: cell-based or functional assay
[22] = target: T10, human IL-17A/F heterodimer; assay: AlphaScreen competition, hIL-17A/F - IL-17RC-Fc
Target sequence in this assay (Q16552 24-155 limits assumed, chain 1 of 2, one chain of several): as above
Description: as §2

[23] = target: T12, human IL-17F (human, UniProt Q96PD4 31-163); assay: SPR (Biacore) off-rate
T12 construct: made in Hek293 cells (GenBank AF384857); also called hIL-17F; hIL17F
T12 sequence: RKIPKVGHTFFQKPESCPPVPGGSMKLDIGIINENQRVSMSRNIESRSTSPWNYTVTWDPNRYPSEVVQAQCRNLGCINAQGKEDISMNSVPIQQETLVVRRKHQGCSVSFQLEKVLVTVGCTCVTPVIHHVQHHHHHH

[24] = target: T13, human IL-17A/F heterodimer (human, UniProt Q16552 24-155; Q96PD4 31-163, limits assumed); assay: SPR (Biacore) off-rate
T13 construct: bought, made in E. coli (R&D Systems 5194-IL/CF); also called hIL-17A/F; hIL17A/F
T13 sequence (Q16552 24-155 limits assumed, chain 1 of 2, one chain of several): as the sequence (Q16552 24-155 limits assumed, chain 1 of 2, one chain of several) above

[25] = target: T9, human IL-17A; assay: SPR Biacore, hIL-17A on chip; purified protein

B1: 11A06 (VHH)
VHH: EVQLVESGGGLVQPGESLRLSCKASGFSLDYYALGWFRQAPGKEREGISCITSSDASAYYTDSVKGRFTISRDNSKNTVYLQMNSLKTEDTAIYYCAAALLTCSSYYDAYTYWGQGTQVTVSS
notes: Class 2
OD [1]: 0.0045 OD | OD [2]: 0.0225 OD | OD [3]: 0.673 OD | OD [4]: 0.0455 OD | OD [5]: 1.71 OD | OD [6]: 0.004 OD | OD [7]: 1.69 OD | OD [8]: 0.008 OD | OD [9]: 0.007 OD | % Biacore binding (IL-17A-NB)-IL-17RA [10]: -0.35%

B2: 09G10 (VHH)
VHH: EVQLVESGGGLVQAGGSLRLSCAASDSVFTAKAVGWYRQPPGLQREWVAIITSGGKTNYADSSVKGRFTVSVDKVKNTVTLQMNSLKPEDTAVYYCYAQWMGRDYWGQGTQVTVSS
notes: Class 2
OD [1]: 0.0025 OD | OD [2]: 0.0045 OD | OD [3]: -0.018 OD | OD [5]: 1.58 OD | OD [6]: -0.001 OD | OD [7]: 1.64 OD | OD [8]: 0.003 OD | OD [9]: 0.006 OD | % Biacore binding (IL-17A-NB)-IL-17RA [10]: 2.05%

B3: 10A04 (VHH)
VHH: EVQLVESGGGLVQPGGSLRLSCAASGFTFSSYWMYWVRQAPGKGLEWISALAPGGGNRYYAESVNGRFTISRDNAKNSLYLQMNSLKSEDTAVYYCAKDHNVGYRTGEYDYGGQGTQVTVSS
notes: Class 4 Nanobody (cross-reactive: anti-IL-17A, IL-17F and IL-17A/F); not shown: c-myc, His6 tag
IC50 [11]: > 250 nM | IL-17A-induced IL-6 production in HT-1080 cells, Emax [12]: 31.5% | IL-17A-induced IL-6 production in HT-1080 cells, IC50 [12]: 65.4 nM | koff [13]: 0.015 s⁻¹ | koff [14]: 0.0048 s⁻¹ | IC50 [15]: 37.7 nM | IL-17A/F-induced IL-6 production in HT-1080 cells, Emax [16]: 79.5% | IL-17A/F-induced IL-6 production in HT-1080 cells, IC50 [16]: 122 nM | IC50 [17]: 0.22 nM | IC50 [18]: 78.1 nM | koff [19]: < 0.0002 s⁻¹ | IC50 [20]: 0.746 nM | IL-17F-induced IL-6 production in HT-1080 cells, Emax [21]: 102% | IL-17F-induced IL-6 production in HT-1080 cells, IC50 [21]: 112 nM | IC50 [22]: 15.6 nM

B4: 16A04 (VHH)
VHH: EVQLVESGGGLVQAGGSLRLSCAASGRTFSSYVVGWFRQAPGKEREFIGAISGSGDSIYYAVSEKDRFTISRDNGKNTLYLQMSSLKAEDTAVYYCTADQEFGYLRFGRSEYWGQGTQVTVSS
notes: Class 3 Nanobody (anti-IL-17F); also called IL17MS16A04; not shown: c-myc, His6 tag
IC50 [11]: > 131 nM | koff [13]: 0.003 s⁻¹ | koff [14]: 0.00053 s⁻¹ | IC50 [15]: 90.4 nM | IL-17A/F-induced IL-6 production in HT-1080 cells, Emax [16]: 95% | IL-17A/F-induced IL-6 production in HT-1080 cells, IC50 [16]: 48.2 nM | IC50 [17]: 0.052 nM | IC50 [18]: > 77.9 nM | IC50 [20]: 1.09 nM | IL-17F-induced IL-6 production in HT-1080 cells, Emax [21]: 100% | IL-17F-induced IL-6 production in HT-1080 cells, IC50 [21]: 112 nM | IC50 [22]: 0.389 nM

B5: IL17MS3055 (VHH)
VHH: EVQLVESGGGLVQPGGSLRLSCAASGRTFSSYVVGWFRQAPGKEREFIGAISGSGDSIYYAVSEKGRFTISRDNGKNTLYLQMNSLRAEDTAVYYCTADQEFGYLRFGRSEYWGQGTLVTVSS
koff [23]: 0.000493 s⁻¹ | koff [24]: 0.00332 s⁻¹

B6: IL17MS3056 (VHH)
VHH: EVQLVESGGGLVQPGGSLRLSCAASGRTFSSYVVGWFRQAPGKEREFVGAISGSGDSIYYAVSEKDRFTISRDNSKNTLYLQMSSLRAEDTAVYYCTADQEFGYLRFGRSEYWGQGTLVTVSS
notes: variant of IL17MS16A04; Kabat numbering
koff [23]: 0.000514 s⁻¹ | koff [24]: 0.00288 s⁻¹

B7: 13E02 (VHH)
VHH: EVQLVESGGGLVQAGGSLRLSCAASGRTYDAMGWLRQAPGKEREFVAAISGSGDDTYYADSVKGRFTISKDNAGITMYLQMNSLKPEDTAVYYCATRRGLYYVWDSNDYENWGQGTQVTVSS
notes: Class 4 Nanobody (cross-reactive: anti-IL-17A, IL-17F and IL-17A/F); also called IL17MS13E02; not shown: c-myc, His6 tag
IC50 [11]: 0.187 nM | koff [25]: 0.00013 s⁻¹ | IL-17A-induced IL-6 production in HT-1080 cells, Emax [12]: 102% | IL-17A-induced IL-6 production in HT-1080 cells, IC50 [12]: 3.5 nM | koff [13]: 7.1e-05 s⁻¹ | koff [14]: 0.0036 s⁻¹ | IC50 [15]: 0.071 nM | IL-17A/F-induced IL-6 production in HT-1080 cells, Emax [16]: 108% | IL-17A/F-induced IL-6 production in HT-1080 cells, IC50 [16]: 21.7 nM | IC50 [17]: 0.214 nM | IC50 [18]: 0.067 nM | IC50 [20]: 0.395 nM | IL-17F-induced IL-6 production in HT-1080 cells, Emax [21]: 86.5% | IL-17F-induced IL-6 production in HT-1080 cells, IC50 [21]: 104 nM | IC50 [22]: 0.117 nM

B8: 04B09 (VHH)
VHH: EVQLVESGGGLVQPGGSLRLSCAASGFTLGYYAIGWFRQAPGKEREGVSCDSSSDGDTYYANSVKGRFTISTDNGKNTVYLQMNSLKPEDTAVYYCATCTDWNYDYWGQGTQVTVSS
notes: Class 2
OD [1]: 0.0015 OD | OD [2]: 0.0025 OD | OD [3]: -0.015 OD | OD [6]: 0 OD | OD [8]: 0.001 OD | OD [9]: 0.006 OD

B9: 13B03 (VHH)
VHH: EVQLVESGGGSVQAGDSLRLSCAASGRANSINWFGWFRQTPGKEREFVAGIRWSDAYTEYANSVKGRFTISRDNAKNTVDLQMDSLKPEDTAVYYCVLDLSTVRYWGQGTQVTVSS
notes: Class 4 Nanobody (cross-reactive: anti-IL-17A, IL-17F and IL-17A/F); also called IL17MS13B03; not shown: c-myc, His6 tag
IC50 [11]: 0.202 nM | koff [25]: 6.3e-05 s⁻¹ | IL-17A-induced IL-6 production in HT-1080 cells, Emax [12]: 101% | IL-17A-induced IL-6 production in HT-1080 cells, IC50 [12]: 2.9 nM | koff [13]: 3.6e-05 s⁻¹ | koff [14]: 0.0058 s⁻¹ | IC50 [15]: 0.079 nM | IL-17A/F-induced IL-6 production in HT-1080 cells, Emax [16]: 112% | IL-17A/F-induced IL-6 production in HT-1080 cells, IC50 [16]: 26.8 nM | IC50 [17]: 0.848 nM | IC50 [18]: 0.056 nM | IC50 [20]: 2.11 nM | IL-17F-induced IL-6 production in HT-1080 cells, Emax [21]: 85.5% | IL-17F-induced IL-6 production in HT-1080 cells, IC50 [21]: 149 nM | IC50 [22]: 0.031 nM
